Results: patent US20120164142A1
Ends that are not written are not given here.

T1: purified insulin degrading enzyme (IDE) (UniProt P14735)
T1 sequence (looked up): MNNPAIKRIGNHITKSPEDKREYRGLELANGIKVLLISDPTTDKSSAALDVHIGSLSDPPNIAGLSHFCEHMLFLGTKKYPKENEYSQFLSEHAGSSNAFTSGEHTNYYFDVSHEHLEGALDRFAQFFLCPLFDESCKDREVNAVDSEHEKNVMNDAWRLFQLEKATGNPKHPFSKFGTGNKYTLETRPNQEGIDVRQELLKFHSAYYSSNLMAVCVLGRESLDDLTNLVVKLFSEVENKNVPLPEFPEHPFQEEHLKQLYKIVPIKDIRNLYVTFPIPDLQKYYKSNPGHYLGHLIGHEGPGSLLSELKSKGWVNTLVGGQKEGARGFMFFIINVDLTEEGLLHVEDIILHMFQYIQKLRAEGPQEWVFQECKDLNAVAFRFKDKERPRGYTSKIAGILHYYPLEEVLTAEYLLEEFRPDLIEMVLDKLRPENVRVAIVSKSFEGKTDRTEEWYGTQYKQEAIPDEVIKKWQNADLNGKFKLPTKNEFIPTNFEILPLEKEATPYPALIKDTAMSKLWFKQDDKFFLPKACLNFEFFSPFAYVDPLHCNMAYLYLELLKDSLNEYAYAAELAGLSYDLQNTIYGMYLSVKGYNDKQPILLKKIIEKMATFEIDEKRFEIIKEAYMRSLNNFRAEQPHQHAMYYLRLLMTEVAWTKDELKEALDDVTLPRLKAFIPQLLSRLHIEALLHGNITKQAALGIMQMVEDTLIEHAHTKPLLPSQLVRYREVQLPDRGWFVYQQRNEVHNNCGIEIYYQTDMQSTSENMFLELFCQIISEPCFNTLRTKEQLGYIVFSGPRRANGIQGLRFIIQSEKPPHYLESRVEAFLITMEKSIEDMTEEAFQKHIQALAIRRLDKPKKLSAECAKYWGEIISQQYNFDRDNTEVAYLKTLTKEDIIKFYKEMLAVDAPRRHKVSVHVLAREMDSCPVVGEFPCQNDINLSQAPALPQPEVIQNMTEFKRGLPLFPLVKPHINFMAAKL


Experiments:
Assay in all cases: cell-based or functional assay
[1] = target: human natriuretic peptide receptor B (NPR-B) (human) (UniProt P20594)
[2] = target: purified neutral endopeptidase (NEP) (UniProt P08473)
[3] = target: T1, purified insulin degrading enzyme (IDE)
[4] = target: human natriuretic peptide receptor A (NPR-A) (human) (UniProt P16066)
Chain of human natriuretic peptide receptor A (NPR-A) (human) (P16066 33-1061): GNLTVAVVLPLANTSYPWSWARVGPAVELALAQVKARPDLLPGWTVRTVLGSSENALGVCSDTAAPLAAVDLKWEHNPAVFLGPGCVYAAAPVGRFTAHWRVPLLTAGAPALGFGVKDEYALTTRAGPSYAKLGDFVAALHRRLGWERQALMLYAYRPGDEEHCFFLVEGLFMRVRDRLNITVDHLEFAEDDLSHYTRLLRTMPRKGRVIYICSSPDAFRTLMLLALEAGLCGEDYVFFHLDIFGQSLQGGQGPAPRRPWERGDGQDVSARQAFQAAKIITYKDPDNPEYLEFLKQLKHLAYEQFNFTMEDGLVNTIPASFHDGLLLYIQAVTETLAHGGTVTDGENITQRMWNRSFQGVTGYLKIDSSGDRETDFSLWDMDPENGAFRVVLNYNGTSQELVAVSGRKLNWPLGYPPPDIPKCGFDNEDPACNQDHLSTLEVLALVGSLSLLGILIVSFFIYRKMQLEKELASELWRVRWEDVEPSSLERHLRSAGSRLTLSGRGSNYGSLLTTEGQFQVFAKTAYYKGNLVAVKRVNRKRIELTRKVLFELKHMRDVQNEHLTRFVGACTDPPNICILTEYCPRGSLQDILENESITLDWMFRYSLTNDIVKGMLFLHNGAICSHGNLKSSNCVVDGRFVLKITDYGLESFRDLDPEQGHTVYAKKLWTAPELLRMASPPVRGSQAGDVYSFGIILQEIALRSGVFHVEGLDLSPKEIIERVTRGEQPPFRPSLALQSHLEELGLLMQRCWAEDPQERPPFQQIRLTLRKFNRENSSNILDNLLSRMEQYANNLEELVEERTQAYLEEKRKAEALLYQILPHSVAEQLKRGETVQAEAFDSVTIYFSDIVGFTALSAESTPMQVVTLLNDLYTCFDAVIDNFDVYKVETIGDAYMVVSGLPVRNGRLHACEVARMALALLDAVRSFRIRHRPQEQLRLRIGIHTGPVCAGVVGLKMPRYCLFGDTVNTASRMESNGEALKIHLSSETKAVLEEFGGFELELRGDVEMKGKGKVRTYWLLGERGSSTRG

Chain of human natriuretic peptide receptor B (NPR-B) (human) (P20594 23-1047): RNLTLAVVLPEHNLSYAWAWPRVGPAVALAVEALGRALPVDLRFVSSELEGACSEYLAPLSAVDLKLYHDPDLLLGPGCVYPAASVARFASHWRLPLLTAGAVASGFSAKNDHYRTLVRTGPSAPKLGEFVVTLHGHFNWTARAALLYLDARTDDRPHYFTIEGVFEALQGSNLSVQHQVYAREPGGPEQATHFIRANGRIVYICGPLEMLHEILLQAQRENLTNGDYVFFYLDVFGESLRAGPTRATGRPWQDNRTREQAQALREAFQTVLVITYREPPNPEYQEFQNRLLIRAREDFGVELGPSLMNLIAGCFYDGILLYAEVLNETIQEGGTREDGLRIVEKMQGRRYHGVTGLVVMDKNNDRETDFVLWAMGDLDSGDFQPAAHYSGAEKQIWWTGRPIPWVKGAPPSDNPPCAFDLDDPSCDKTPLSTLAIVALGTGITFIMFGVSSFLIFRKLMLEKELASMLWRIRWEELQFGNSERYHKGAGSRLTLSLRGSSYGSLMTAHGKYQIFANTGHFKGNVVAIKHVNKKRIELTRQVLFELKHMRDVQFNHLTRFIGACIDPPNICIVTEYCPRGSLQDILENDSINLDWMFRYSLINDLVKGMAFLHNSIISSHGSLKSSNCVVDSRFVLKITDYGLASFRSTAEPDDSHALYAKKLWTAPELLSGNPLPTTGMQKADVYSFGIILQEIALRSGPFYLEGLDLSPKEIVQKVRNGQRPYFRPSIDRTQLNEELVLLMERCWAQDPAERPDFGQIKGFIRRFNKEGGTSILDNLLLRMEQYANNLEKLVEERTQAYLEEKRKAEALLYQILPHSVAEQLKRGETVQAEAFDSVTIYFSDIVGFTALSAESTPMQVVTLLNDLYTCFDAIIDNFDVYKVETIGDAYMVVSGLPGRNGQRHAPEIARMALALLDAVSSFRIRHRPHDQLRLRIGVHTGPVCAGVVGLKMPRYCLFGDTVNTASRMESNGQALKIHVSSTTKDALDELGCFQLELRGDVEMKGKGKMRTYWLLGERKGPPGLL
Chain of purified neutral endopeptidase (NEP) (P08473 52-750 limits assumed): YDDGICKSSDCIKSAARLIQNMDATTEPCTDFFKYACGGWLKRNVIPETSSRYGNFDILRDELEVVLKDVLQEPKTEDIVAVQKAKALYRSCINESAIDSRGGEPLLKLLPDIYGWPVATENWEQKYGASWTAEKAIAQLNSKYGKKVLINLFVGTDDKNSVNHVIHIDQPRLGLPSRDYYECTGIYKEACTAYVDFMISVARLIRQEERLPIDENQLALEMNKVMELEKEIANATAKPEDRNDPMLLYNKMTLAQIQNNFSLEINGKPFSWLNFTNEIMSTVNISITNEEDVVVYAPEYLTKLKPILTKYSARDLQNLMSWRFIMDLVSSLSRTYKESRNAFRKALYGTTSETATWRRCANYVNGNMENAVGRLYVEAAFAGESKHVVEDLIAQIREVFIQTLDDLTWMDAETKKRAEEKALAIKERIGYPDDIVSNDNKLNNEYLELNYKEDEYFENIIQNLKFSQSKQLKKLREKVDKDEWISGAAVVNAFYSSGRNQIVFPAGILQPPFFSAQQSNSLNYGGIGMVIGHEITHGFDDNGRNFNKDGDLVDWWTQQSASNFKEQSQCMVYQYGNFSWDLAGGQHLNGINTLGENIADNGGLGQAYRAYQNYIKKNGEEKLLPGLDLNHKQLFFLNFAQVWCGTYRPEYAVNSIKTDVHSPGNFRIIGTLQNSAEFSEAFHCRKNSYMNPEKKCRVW

Binder | % Efficacy [1] [%] | EC50 (nM), NPR-B whole cell cGMP assay [1] [nM] | EC50 Ratio versus CNP22 [1] | Rescue Ratio Average [1] | % of control after 240 min (intact peptide by RP-HPLC after incubation with NEP) [2] [%] | other results
EEEEEEHKLRGQEHPNARKYKGANKKGLSKGCFGLKLDRIGSMSGLGC [KB1(E6)] | 109 | 84.5 | 5.75 | 5.6 | 107 | 
EEEEEEHGPQGQEHPNARKYKGANKKGLSKGCFGLKLDRIGSMSGLGC [KA1(E6)] | 108 | 144 | 9.79 | 8.2 | 108 | 
GLSKGCFGLKLDRIGSMSGLGCGGGGSGGGGSGGGGDDDDDD [CNP-14AAlinker-D6 [C4]] | 156 | 2140 | 146 | 545 | 75 | 
GLSKGCFGLKLDRIGSMSGLGC [human CNP22] | 100 | 14.7 | 1 | 1 | 0 | EC50 on NPR-B (nM), whole cell cGMP assay [1]: 4.87 nM; Rescue Ratio versus CNP22 [1]: 1; reduction of ability to generate cGMP (NPRB cells) after 30 min with purified IDE [3]: 64%; reduction of ability to generate cGMP (NPRB cells) after 120 min with purified IDE [3]: 99%; reduction of ability to generate cGMP (NPRB cells) after 30 min with purified NEP [2]: 50%; reduction of ability to generate cGMP (NPRB cells) after 120 min with purified NEP [2]: 87%
SLRRSSCFGGRMDRIGAQSGLGCNSFRY [atrial natriuretic peptide (ANP)] |  |  |  |  |  | EC50 on NPR-A (nM), whole cell cGMP assay [4]: 1.4 nM
EEEEEESGGGGSGGGKGANKKGLSKGCFGLKLDRIGSMSGLGC [C4(E6) [BC4]] | 136 | 302 | 20.5 | 18 | 94 | 
EEEEEESGGGGSGGGKGANQKGLSKGCFGLKLDRIGSMSGLGC [C7(E6) [BC7]] | 95 | 1010 | 68.6 | 80 | 98 | 
EEEEEESGGGGSGGGQGANKKGLSKGCFGLKLDRIGSMSGLGC [C8(E6) [BC8]] | 97 | 719 | 48.9 | 52 | 103 | 
EEEEEESGGGGSGGGQGANQQGLSKGCFGLKLDRIGSMSGLGC [C5(E6) [BC5]] | 96 | 2360 | 161 | 138 | 100 | 
EEEEEESGGGGSGGGQGANKQGLSKGCFGLKLDRIGSMSGLGC [C11(E6) [BC11]] | 95 | 888 | 60.4 | 120 | 102 | 
EEEEEESGGGGSGGGQGANQKGLSKGCFGLKLDRIGSMSGLGC [C10(E6) [BC10]] | 156 | 2470 | 168 | 90 | 102 | 
EEEEEESGGGGSGGGKGANQQGLSKGCFGLKLDRIGSMSGLGC [C9(E6) [BC9]] | 95 | 1170 | 79.3 | 87 | 98 | 
EEEEEESGGGGSGGGKGANKQGLSKGCFGLKLDRIGSMSGLGC [C6(E6) [BC6]] | 88 | 672 | 45.7 | 63 | 98 | 
EEEEEESGGGGSGGGGSGGGGGLSKGCFGLKLDRIGSMSGLGC [C1(E6) [BC1]] | 97 | 1740 | 118 | 122 | 99 | 
GLSKGCFGLKLDRIGSMSGLGCPSSAAPRPNAPSTSA (ends and bridges not checked; cysteine pairing not given here) [CDNP-S3A4A5] |  |  |  |  |  | % loss in efficacy versus CDNP (NPR-B selective efficacy gain) [1]: 69%; Approximate fold gain in selectivity versus CDNP (NPR-B over NPR-A) [1]: 14.9 fold; Approximate fold selectivity NPR-B versus NPR-A [1]: 43.5 fold
GLSKGCFGLKLDRIGSMSGLGCPSSADPRPNAPSTSA (ends and bridges not checked; cysteine pairing not given here) [CDNP-S3A4] |  |  |  |  |  | % loss in efficacy versus CDNP (NPR-B selective efficacy gain) [1]: 27%; Approximate fold gain in selectivity versus CDNP (NPR-B over NPR-A) [1]: 28.5 fold; Approximate fold selectivity NPR-B versus NPR-A [1]: 83.2 fold
GLSKGCFGLKLDRIGSMSGLGCPSLAAPRPNAPSTSA (ends and bridges not checked; cysteine pairing not given here) [CDNP-A4A5] |  |  |  |  |  | % efficacy versus CDNP on NPR-A, membrane cGMP assay [4]: 49%; EC50 ratio versus CDNP on NPR-A, membrane cGMP assay [4]: 0.48; % efficacy versus CDNP on NPR-B, membrane cGMP assay [1]: 85%; % loss in efficacy versus CDNP (NPR-B selective efficacy gain) [1]: 36%; Approximate fold gain in selectivity versus CDNP (NPR-B over NPR-A) [1]: 0.98 fold; Approximate fold selectivity NPR-B versus NPR-A [1]: 2.86 fold; EC50 ratio versus CDNP on NPR-B, membrane cGMP assay [1]: 0.49
GLSKGCFGLKLDRIGSMSGLGCPSLADPRPNAPSTSA (ends and bridges not checked; cysteine pairing not given here) [CDNP-A4] |  |  |  |  |  | % efficacy versus CDNP on NPR-A, membrane cGMP assay [4]: 90%; EC50 ratio versus CDNP on NPR-A, membrane cGMP assay [4]: 41.1; % efficacy versus CDNP on NPR-B, membrane cGMP assay [1]: 92%; % loss in efficacy versus CDNP (NPR-B selective efficacy gain) [1]: 2%; Approximate fold gain in selectivity versus CDNP (NPR-B over NPR-A) [1]: 17.8 fold; Approximate fold selectivity NPR-B versus NPR-A [1]: 52 fold; EC50 ratio versus CDNP on NPR-B, membrane cGMP assay [1]: 2.31
GLSKGCFGLKLDRIGSMSGLGCPSLRAPRPNAPSTSA (ends and bridges not checked; cysteine pairing not given here) [CDNP-A5] |  |  |  |  |  | % efficacy versus CDNP on NPR-A, membrane cGMP assay [4]: 114%; EC50 ratio versus CDNP on NPR-A, membrane cGMP assay [4]: 1.33; % efficacy versus CDNP on NPR-B, membrane cGMP assay [1]: 87%; % loss in efficacy versus CDNP (NPR-B selective efficacy gain) [1]: -27%; Approximate fold gain in selectivity versus CDNP (NPR-B over NPR-A) [1]: 5.54 fold; Approximate fold selectivity NPR-B versus NPR-A [1]: 16.2 fold; EC50 ratio versus CDNP on NPR-B, membrane cGMP assay [1]: 0.24
GLSKGCFGLKLDRIGSMSGLGCPSSRAPRPNAPSTSA (ends and bridges not checked; cysteine pairing not given here) [CDNP-S3A5] |  |  |  |  |  | % efficacy versus CDNP on NPR-A, membrane cGMP assay [4]: 36%; EC50 ratio versus CDNP on NPR-A, membrane cGMP assay [4]: 1.33; % efficacy versus CDNP on NPR-B, membrane cGMP assay [1]: 118%; % loss in efficacy versus CDNP (NPR-B selective efficacy gain) [1]: 82%; Approximate fold gain in selectivity versus CDNP (NPR-B over NPR-A) [1]: 1.23 fold; Approximate fold selectivity NPR-B versus NPR-A [1]: 3.59 fold; EC50 ratio versus CDNP on NPR-B, membrane cGMP assay [1]: 1.08
DDDDDDGGGGSGGGGSGGGGGLSKGCFGLKLDRIGSMSGLGC [D6-14AAlinker-CNP [C3]] |  |  |  |  | 101 | 
